From US20260216242A1, “ALPP-SPECIFIC VARIANT ANTIGEN BINDING MOLECULES” (ALMAC DISCOVERY LIMITED, priority 2022, published 2026)
Positions count from the first letter of the chain named.

B1: C05: ALPP targeting VHH domain, SEQ ID NO: 23 (protein)
VHH: QVQLVESGGGLVQAGGSLRLSCAASRRSFSEYAMGWFRQAPGKEREFVAAIGWSGVIEYADSVKGRFTISRDNAKDTVYLQMNSLKPEDTAVYYCAAGLGIRVVSQTPAYWGQGTQVTVSS
B2: G03: ALPP targeting VHH domain, SEQ ID NO: 38 (protein)
VHH: QVQLVESGGGTAQAGGSLRLACAASGRSVTMGWLGWVPRAERDDLEFITWFNWGTYYANSVNGRFTISTDNADNTVYPQMNRLKPENPAVYYCASFTGYRPLINRLNDVSDCGHGALVAVSS
B3: A08: ALPP targeting VHH domain, SEQ ID NO: 18 (protein)
VHH: QVQLVESGGGLVQAGESLRLACAASGTIFSGNAVGWYRQAPEKQREWVSSITDYGDTDYAEAVKGRFTISRDNAKNTVYLQMNSLKPEDTAVYYCYVYQRGESEEYWGQGTKVTVSS
B4: F12: ALPP targeting VHH domain, SEQ ID NO: 37 (protein)
VHH: QVQLVESGGGLVEAGGSLRLSCAVSGSALSDYNIGWFRQAPGKEREFVARKTWDGSSTKYDDSVKGRFTVSIDNAKNTAYLQMNSLKTEDTAVYYCAAGRYSRVRGWEYDYWGQRTQVTVSS
B5: B09: ALPP targeting VHH domain, SEQ ID NO: 21 (protein)
VHH: QVQLVESGGGSVQAGGSLRLSCAASGPSLSHYAMGWFRQAPGKEREFVAGISWGGGRTSYTDSVKGRFTISRDNAKNTVYLQMNNLKPEDTGVYYCAGRYGRGRNVEYEYDYWGQGTQVTVSS
B6: F09: ALPP targeting VHH domain, SEQ ID NO: 36 (protein)
VHH: B5 VHH with H31N, Y60C
B7: H10: ALPP targeting VHH domain, SEQ ID NO: 40 (protein)
VHH: B5 VHH with A14T, H31N, S59N, T61L, V79M, N85S, T91A, G92A, N105D
B8: D11: ALPP targeting VHH domain, SEQ ID NO: 29 (protein)
VHH: B5 VHH with H31N, Q118M
B9: E12: ALPP targeting VHH domain, SEQ ID NO: 33 (protein)
VHH: B5 VHH with L29I, H31N, Y32F, S59N, T61L, T78M, Y80H, N85S, G92T, N105D
B10: C06: ALPP targeting VHH domain, SEQ ID NO: 24 (protein)
VHH: B5 VHH with S11L, A14P, L20V, H31N
B11: B11: ALPP targeting VHH domain, SEQ ID NO: 22 (protein)
VHH: B5 VHH with Q3H, H31N
B12: D08: ALPP targeting VHH domain, SEQ ID NO: 27 (protein)
VHH: B5 VHH with Q3H, H31N, Q118K
B13: H09: ALPP targeting VHH domain, SEQ ID NO: 39 (protein)
VHH: B5 VHH with A14T, H31N, S59N, T61L, V79M, N85S, G92A, N105D
B14: A12: ALPP targeting VHH domain, SEQ ID NO: 19 (protein)
VHH: B5 VHH with Q3H, S7C, S17F, H31N, W36R, K87E, Q118K
B15: E11: ALPP targeting VHH domain, SEQ ID NO: 32 (protein)
VHH: B5 VHH with H31N, Y32F, A40P

Target: T1, ALPP (Homo sapiens, UniProt P05187)
Assay: BLI binding kinetics, human ALPP immobilised on AR2G sensors (KD / KD apparent)
Settings: VHH domains
Procedure: Binding kinetics were determined using the Biolayer Interferometry (BLI) Octet K2 system (Sartorius). Human ALPP, ALPPL2, ALPL (each fused with a cysteine stabilised leucine zipper) and ALPI, (SEQ ID NO: 265, SEQ ID NO: 266 and SEQ ID NO: 267 and SEQ ID NO: 264 respectively) were immobilised in sodium acetate pH5 buffer to AR2G sensors using amine coupling. All assays were conducted in PBS with a plate temperature of 25° C. Ka (M^−1s^−1), Kd (s^−1) and KD (nM) values were determined using Octet Data Analysis High Throughput software (ForteBio) for Biolayer Interferometry.
(§1) Binding kinetics were determined using the Biolayer Interferometry (BLI) Octet K2 or R4 system (Sartorius). Human ALPP, ALPPL2 and ALPL all fused with a disulphide stabilised leucine zipper (SEQ ID NO: 265, SEQ ID NO: 266, and SEQ ID NO: 267) and ALPI His (SEQ ID NO: 264) were used in BLI experiments. For KD apparent measurements, the ALPP proteins were immobilised in sodium acetate pH5 buffer to AR2G sensors using amine coupling. To measure 1:1 interactions, AHC biosensors were used to immobilise Fc-fused proteins. All assays were conducted in HBS-EP with a plate temperature of 25° C. Ka (M^−1s^−1), Kd (s^−1) and KD (nM) values were determined using Octet Data Analysis High Throughput software (Sartorius) for Biolayer Interferometry.
as §1, with “NO:264)” for “NO: 264)”

T1 sequence (P05187 with tags, fused parts or gaps): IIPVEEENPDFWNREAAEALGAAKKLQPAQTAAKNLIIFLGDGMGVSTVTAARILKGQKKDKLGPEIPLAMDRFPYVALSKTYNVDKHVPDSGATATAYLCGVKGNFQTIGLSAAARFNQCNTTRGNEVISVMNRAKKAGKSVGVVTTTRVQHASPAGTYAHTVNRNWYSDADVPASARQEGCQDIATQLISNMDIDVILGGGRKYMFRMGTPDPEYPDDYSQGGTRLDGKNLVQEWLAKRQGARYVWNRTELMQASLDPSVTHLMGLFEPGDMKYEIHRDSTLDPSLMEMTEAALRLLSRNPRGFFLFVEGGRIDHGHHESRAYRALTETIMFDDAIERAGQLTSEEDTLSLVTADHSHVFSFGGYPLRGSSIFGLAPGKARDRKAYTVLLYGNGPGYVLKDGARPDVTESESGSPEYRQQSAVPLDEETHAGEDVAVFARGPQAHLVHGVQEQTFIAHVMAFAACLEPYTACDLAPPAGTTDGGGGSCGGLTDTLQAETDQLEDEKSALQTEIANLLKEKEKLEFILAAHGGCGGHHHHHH

Molecule | hALPP Ka [M⁻¹ s⁻¹] | hALPP Kd [s⁻¹]
B1 | 394000 | <1e-07
B2 | 47400 | <1e-07
B3 | 429000 | 0.000012
B4 | 38600 | <1e-07
B5 | 237000 | <1e-07
B6 | 40600 | <1e-07
B7 | 45900 | 0.0000085
B8 | 97700 | <1e-07
B9 | 39200 | 0.000028
B10 | 368000 | <1e-07
B11 | 213000 | 0.000017
B12 | 175000 | <1e-07
B13 | 58600 | <1e-07
B14 | 360000 | <1e-07
B15 | 149000 | 0.0000018

Same assay, conditions: VHH domains (His-tagged monomers), PBS, 25° C., read-out: hALPP KD

Molecule | Kd [pM]
B2 | < 10
B14 | < 10

Target: T2, ALPI His homodimer (Homo sapiens, UniProt P09923)
T2 sequence (P09923 with tags, fused parts or gaps): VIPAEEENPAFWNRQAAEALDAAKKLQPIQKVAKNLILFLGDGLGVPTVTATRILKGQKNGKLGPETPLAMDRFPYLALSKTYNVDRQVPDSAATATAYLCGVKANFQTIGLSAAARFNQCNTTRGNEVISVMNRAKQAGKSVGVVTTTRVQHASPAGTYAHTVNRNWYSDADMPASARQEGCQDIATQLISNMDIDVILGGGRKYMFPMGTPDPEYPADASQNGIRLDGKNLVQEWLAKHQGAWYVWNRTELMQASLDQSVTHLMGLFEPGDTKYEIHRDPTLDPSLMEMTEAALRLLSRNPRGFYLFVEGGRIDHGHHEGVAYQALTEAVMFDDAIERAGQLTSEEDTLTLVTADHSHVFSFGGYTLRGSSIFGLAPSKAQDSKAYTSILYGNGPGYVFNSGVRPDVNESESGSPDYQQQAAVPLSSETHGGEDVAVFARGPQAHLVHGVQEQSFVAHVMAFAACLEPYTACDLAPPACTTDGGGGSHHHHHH
Assay: ELISA binding to ALPI
Settings: 500 ng purified VHH
Procedure: ELISA was used to test the binding and specificity of the VHHs. ALPP CysHis (SEQ ID NO: 263), ALPI His homodimer (SEQ ID NO: 264) or BSA (Thermo Fisher) were coated onto plates and 500 ng of each purified VHH added. Anti-Llama—HRP antibody was used for detection.

Molecule | ELISA hALPI
B1 | No Binding
B2 | No Binding
B3 | No Binding
B4 | No Binding
B5 | No Binding
B6 | No Binding
B7 | No Binding
B8 | No Binding
B9 | No Binding
B10 | No Binding
B11 | No Binding
B12 | No Binding
B13 | No Binding
B14 | No Binding
B15 | No Binding

Tested on: not listed separately
Assay: Thermal stability (Protein Thermal Shift assay)
Assay type: physicochemical
Settings: VHH domains, first derivative analysis
Procedure: Thermal stability assays used Applied Biosystems StepOne Real Time PCR system with the Protein Thermal Shift™ dye kit (Thermo Fisher). The assay mix was set up so that the protein was at a final concentration of 20 µM in 20 μL. 5 μL of Thermal Shift™ buffer was added alongside 2.5 μL 8× Thermal Shift™ Dye. Assays were run using the StepOne software and data analysed using Protein Thermal Shift™ software. All data are from first derivative analysis.

Molecule | Tm [°C]
B1 | 80.6
B2 | 74.0
B3 | 71.4
B4 | 62.9
B5 | 77.1
B6 | 72.1
B7 | 64.9
B8 | 78.1
B9 | 55.5
B10 | 71.6
B11 | 77.4
B12 | 64.9
B13 | 68.8
B14 | 76.3
B15 | 78.0

Target: T1, ALPP
Assay: Epitope binning by BLI competition assay
Assay type: binding
Settings: BLI competition on immobilised ALPP
Procedure: To determine epitope cross reactivity BLI competition assays were conducted. AR2G sensors were used and ALPP immobilised as above. ALPP sensors were then dipped into a well containing a saturating concentration of the initial binder for ten minutes to get an association curve. The sensor was then dipped into a well containing the same concentration of initial binder plus 20 nM of a secondary binding.
An increase in the association curve was indicative that the second VHH bound to a distinct epitope from the initial binder. Monomers with identical CDR3s were grouped as likely to be in the same epitope bin and only one from each group used in the epitope binning experiment.

Molecule | epitope bin
B2 | one
B5 | one
B11 | one
